Results as given in patent publication EP4796130A1, “ANTI-TISSUE FACTOR ANTIBODY-DRUG CONJUGATE COMPRISING CAMPTOTHECIN DERIVATIVE” (Celltrion, Inc., priority 2023, dated 2025).

Tested on: HPAFII (human pancreatic cancer xenograft model)
Assay: In vivo antitumor efficacy, HPAFII xenograft model
Design: species or system CB17 SCID mice
Details: 3 mg/kg i.v. QW × 3

B1: Isotype-MMAE: ADC in which anti-influenza A antibody (Navivumab, P23) is conjugated with MMAE (MC-vc-PAB-MMAE); DAR 4 (conjugate, chains of the INN, looked up)
VH: QVQLVQSGAEVKKPGASVKVSCKTSGYSFSTYGVSWVRQAPGQGPEWVGWISAYTGITDYAQKFQGRVTLTTDATTATAFLDLRSLRPDDTATYFCARDKVQGRVEVGSGGRHDYWGQGTLVIVSS
VL: EVVLTQSPGTLALPPGERATLSCRASHRVGSTYIAWYQQKSGQAPRRLIYGASNRATDIPDRFSGSGSGTDFTLTIRRLEPEDSAVYYCQQFSVSPWTFGQGTRVEIK
modifications: mc-vc-PAB-MMAE payload, DAR 4
Day 0, mean ± SEM
  Tumor Volume: 235 ± 17 mm^3
Day 4, mean ± SEM
  Tumor Volume: 357 ± 38 mm^3
Day 7, mean ± SEM
  Tumor Volume: 424 ± 46 mm^3
Day 11, mean ± SEM
  Tumor Volume: 603 ± 79 mm^3
Day 14, mean ± SEM
  Tumor Volume: 799 ± 98 mm^3
Day 28, mean ± SEM
  Tumor Volume: 2,142 ± 164 mm^3
Day 28 vs control group G1
  T/Cweight: 90.45%
  TGI: 10.01%
Mean ± SEM
  Tumor Weights on Day 28: 1.933 ± 0.177 g
Tumor volume on day 28 vs control group G1
  T/C: 90.99%
